Reference: patent publication US20170305981

How the values were obtained:
AV199-237 = system: T1, AV199-237
T1 sequence: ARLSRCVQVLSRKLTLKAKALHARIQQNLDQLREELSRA

AV199-232 = system: T2, AV199-232
T2 sequence: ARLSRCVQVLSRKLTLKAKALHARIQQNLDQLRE

lipoprotein lipase (LpL), SIGMA
affinity of LpL for substrate on addition of VLDL (10 µg/ml) (apoC-III content of VLDL): The addition of VLDL reduced the enzymes affinity for substrate by 5.3-fold
LpL hydrolytic activity (EnzChek fluorogenic TG substrate), peptide pre-incubated with VLDL (AV199-237): hydrolytic activity was increased ˜4-fold
Km of LpL for substrate, with VLDL, 2.5 µM peptide (AV199-232): substantially improved the Km by almost 8-fold
apparent affinity of LpL for substrate (Michaelis-Menten fit), AV199-232 (2.5 µM) + VLDL (10 µg/ml) (AV199-232): AV199-232+VLDL increases LpL's apparent affinity for substrate by 7.8-fold
